The assay deals with CD3 on human T cells (H9 cells, ATCC HTB-176) (human). Description: flow cytometry on H9 cells, PE anti-human IgG alone (no primary antibody), negative control.
Chain of CD3 on human T cells (H9 cells, ATCC HTB-176) (human) (P07766 23-207, chain 1 of 3): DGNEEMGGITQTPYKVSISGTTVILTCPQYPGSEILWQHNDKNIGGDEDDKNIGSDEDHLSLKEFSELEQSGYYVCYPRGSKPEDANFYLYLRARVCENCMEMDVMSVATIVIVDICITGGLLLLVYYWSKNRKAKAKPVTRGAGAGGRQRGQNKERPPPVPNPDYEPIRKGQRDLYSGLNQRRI
Chain of CD3 on human T cells (H9 cells, ATCC HTB-176) (human) (P04234 22-171, chain 2 of 3, further chain): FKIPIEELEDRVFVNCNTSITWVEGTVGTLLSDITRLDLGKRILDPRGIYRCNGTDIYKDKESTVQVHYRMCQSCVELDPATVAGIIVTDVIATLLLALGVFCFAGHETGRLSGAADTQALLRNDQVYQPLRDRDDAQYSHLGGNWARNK
Chain of CD3 on human T cells (H9 cells, ATCC HTB-176) (human) (P09693 23-182, chain 3 of 3, further chain): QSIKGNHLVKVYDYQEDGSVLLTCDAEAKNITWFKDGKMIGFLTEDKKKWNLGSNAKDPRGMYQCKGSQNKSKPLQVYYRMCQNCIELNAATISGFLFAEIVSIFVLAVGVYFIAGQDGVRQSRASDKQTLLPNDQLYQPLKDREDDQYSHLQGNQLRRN

a-HuIgG PE (antibody) came in with a Mean : PE-A of 138.
